B1: CD3 × CD33-BspAb86 (bispecific antibody)
chain 1: EVQLVESGGGLVKPGGSLRLSCAASGFTFSSYSMNWVRQAPGKCLEWVSSISRSGTYIYYADSVKGRFTISRDNAKNSLYLQMNSLRAEDTAVYYCARERWELLYFDYWGQGTLVTVSSGGGGSGGGGSGGGGSGGGGSQTVVTQEPSLTVSPGGTVTLTCASSTGAVTSGYYPNWFQQKPGQAPRALIYSTSNKHSWTPARFSGSLLGGKAALTLSGVQPEDEAEYYCLLYYGGAYVFGCGTKVTVLDKTHTCPPCPAPEFEGGPSVFLFPPKPKDTLMISRTPEVTCVVVDVSHEDPEVKFNWYVDGVEVHNAKTKPREEQYNSTYRVVSVLTVLHQDWLNGKEYKCKVSNKALPASIEKTISKAKGQPREPQVYTLPPCREEMTKNQVSLWCLVKGFYPSDIAVEWESNGQPENNYKTTPPVLDSDGSFFLYSKLTVDKSRWQQGNVFSCSVMHEALHNHYTQKSLSLSPGK
chain 2: EVQLVQSGAEVKKPGSSVKVSCKASGYTITDSNIHWVRQAPGQSLEWIGYIYPYNGGTDYNQKFKNRATLTVDNPTNTAYMELSSLRSEDTAFYYCVNGNPWLAYWGQGTLVTVSSASTKGPSVFPLAPSSKSTSGGTAALGCLVKDYFPEPVTVSWNSGALTSGVHTFPAVLQSSGLYSLSSVVTVPSSSLGTQTYICNVNHKPSNTKVDKRVEPKSCDKTHTCPPCPAPEFEGGPSVFLFPPKPKDTLMISRTPEVTCVVVDVSHEDPEVKFNWYVDGVEVHNAKTKPREEQYNSTYRVVSVLTVLHQDWLNGKEYKCKVSNKALPASIEKTISKAKGQPREPQVCTLPPSREEMTKNQVSLSCAVKGFYPSDIAVEWESNGQPENNYKTTPPVLDSDGSFFLVSKLTVDKSRWQQGNVFSCSVMHEALHNRFTQKSLSLSPGK
chain 3: DIQLTQSPSTLSASVGDRVTITCRASESLDNYGIRFLTWFQQKPGKAPKLLMYAASNQGSGVPSRFSGSGSGTEFTLTISSLQPDDFATYYCQQTKEVPWSFGQGTKVEVKRTVAAPSVFIFPPSDEQLKSGTASVVCLLNNFYPREAKVQWKVDNALQSGNSQESVTEQDSKDSTYSLSSTLTLSKADYEKHKVYACEVTHQGLSSPVTKSFNRGEC
B2: CD3 × CD33-BspAb71 (bispecific antibody)
chain 1: EVQLVESGGGLVKPGGSLRLSCAASGFTFSSYSMNWVRQAPGKCLEWVSSISRSSSYIYYADSVKGRFTLSRDNAKNSLYLQMNSLRGEDTAIYYCGRDGKGAIFLDYWGQGTLVTVSSGGGGSGGGGSGGGGSGGGGSSYELTQPPSVSVSPGQTARITCSGDALPKKYAYWYQQKSGQAPVLVIYEDSKRPSGIPERFSGSSSGTMATLTISGAQVEDEADYYCYSTHSSGNHRVFGCGTKLTVLDKTHTCPPCPAPEFEGGPSVFLFPPKPKDTLMISRTPEVTCVVVDVSHEDPEVKFNWYVDGVEVHNAKTKPREEQYNSTYRVVSVLTVLHQDWLNGKEYKCKVSNKALPASIEKTISKAKGQPREPQVYTLPPCREEMTKNQVSLWCLVKGFYPSDIAVEWESNGQPENNYKTTPPVLDSDGSFFLYSKLTVDKSRWQQGNVFSCSVMHEALHNHYTQKSLSLSPGK
chain 2: B1 chain 2
chain 3: B1 chain 3
B3: CD3 × CD33-BspAb90 (bispecific antibody)
chain 1: not shown
chain 2: B1 chain 2
chain 3: B1 chain 3
B4: CD3 × CD33-BspAb125 (bispecific antibody)
chain 1: not shown
chain 2: B1 chain 2
chain 3: B1 chain 3
B5: CD3 × CD33-BspAb115 (bispecific antibody)
chain 1: NFMLTQPHSVSESPGKTVTISCTRTSGSIASNYVQWYQQRPGSSPTTVIYEDNQRPSGVPDRFSGSIDSSSNSASLTISGLKTEDEAAYYCQSYDRSNRVFGCGTKLTVLGGGGSGGGGSGGGGSGGGGSQVQLQESGPGLVKPSETLSLTCTVSGGSISSYYWSWIRQPAGKCLEWIGRIYTSGSTKYNPSLKSRVTMSVDTSKNQFSLKLISVTAADTAVYFCARERIRDLYFDYWGQGTLVTVSSDKTHTCPPCPAPEFEGGPSVFLFPPKPKDTLMISRTPEVTCVVVDVSHEDPEVKFNWYVDGVEVHNAKTKPREEQYNSTYRVVSVLTVLHQDWLNGKEYKCKVSNKALPASIEKTISKAKGQPREPQVYTLPPCREEMTKNQVSLWCLVKGFYPSDIAVEWESNGQPENNYKTTPPVLDSDGSFFLYSKLTVDKSRWQQGNVFSCSVMHEALHNHYTQKSLSLSPGK
chain 2: B1 chain 2
chain 3: B1 chain 3
B6: High affinity Control (Control Humanized anti-CD3 (high affinity) scFv-Fc knob/TM with gemtuzumab arm) (bispecific antibody)
scFv: EVQLVESGGGLVQPGGSLRLSCAASGFTFSTYAMNWVRQAPGKGLEWVGRIRSKYNNYATYYADSVKGRFTISRDDSKNTLYLQMNSLRAEDTAVYYCVRHGNFGDSYVSWFAYWGQGTLVTVSSGKPGSGKPGSGKPGSGKPGSQAVVTQEPSLTVSPGGTVTLTCGSSTGAVTTSNYANWVQQKPGKSPRGLIGGTNKRAPGVPARFSGSLLGGKAALTISGAQPEDEADYYCALWYSNHWVFGGGTKLTVLGGGGSDKTHTCPPCPAPEFEGGPSVFLFPPKPKDTLMISRTPEVTCVVVDVSHEDPEVKFNWYVDGVEVHNAKTKPREEQYNSTYRVVSVLTVLHQDWLNGKEYKCKVSNKALPASIEKTISKAKGQPREPQVYTLPPCREEMTKNQVSLWCLVKGFYPSDIAVEWESNGQPENNYKTTPPVLDSDGSFFLYSKLTVDKSRWQQGNVFSCSVMHEALHNHYTQKSLSLSPGK
heavy: B1 chain 2
light: B1 chain 3

These binders were tested against T1, human CD3 (on human Pan-T cells or donor PBMC) (human, UniProt P07766 23-207; P04234 22-171; P09693 23-182; P20963 22-164) (assay: cell-based or functional assay).
T1 sequence (P07766 23-207, chain 1 of 4): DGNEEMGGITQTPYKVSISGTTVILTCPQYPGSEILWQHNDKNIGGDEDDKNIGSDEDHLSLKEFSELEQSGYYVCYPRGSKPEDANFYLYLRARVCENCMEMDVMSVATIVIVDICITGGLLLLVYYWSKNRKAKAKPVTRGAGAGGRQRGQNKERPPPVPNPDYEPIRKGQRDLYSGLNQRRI
T1 sequence (P04234 22-171, chain 2 of 4): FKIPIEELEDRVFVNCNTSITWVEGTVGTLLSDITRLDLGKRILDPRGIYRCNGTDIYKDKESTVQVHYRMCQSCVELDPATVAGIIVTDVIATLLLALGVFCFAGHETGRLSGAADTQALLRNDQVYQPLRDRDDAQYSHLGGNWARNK
T1 sequence (P09693 23-182, chain 3 of 4): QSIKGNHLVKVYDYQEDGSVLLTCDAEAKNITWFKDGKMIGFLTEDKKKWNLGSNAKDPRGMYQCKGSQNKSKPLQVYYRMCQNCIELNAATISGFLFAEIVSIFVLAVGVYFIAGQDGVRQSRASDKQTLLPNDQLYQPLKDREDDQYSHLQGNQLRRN
T1 sequence (P20963 22-164, chain 4 of 4): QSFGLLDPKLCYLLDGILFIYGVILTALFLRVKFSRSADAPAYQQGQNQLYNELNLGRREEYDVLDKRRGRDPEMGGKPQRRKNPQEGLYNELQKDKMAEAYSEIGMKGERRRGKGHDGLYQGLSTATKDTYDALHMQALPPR

Row | Binder | RTCC Assay, Donor 0, EC50 | RTCC Assay, Donor 0, gMFI max | RTCC Assay, Donor 1, EC50 | RTCC Assay, Donor 1, gMFI max | RTCC Assay, Donor 2, EC50 | RTCC Assay, Donor 2, gMFI max | RTCC Assay, Donor 3, EC50 | RTCC Assay, Donor 3, gMFI max
1 | B1 | 1.71 nM | 24100 gMFI | 0.151 nM | 67300 gMFI | 0.697 nM | 59100 gMFI | 1.58 nM | 83500 gMFI
2 | B2 | 0.479 nM | 23900 gMFI | 0.027 nM | 63000 gMFI | 0.083 nM | 57500 gMFI | 0.377 nM | 78600 gMFI
3 | B3 | 0.147 nM | 34800 gMFI | 0.012 nM | 76900 gMFI | 0.034 nM | 62300 gMFI | 0.047 nM | 84000 gMFI
4 | B4 | 0.166 nM | 26700 gMFI | 0.027 nM | 65500 gMFI | 0.049 nM | 54600 gMFI | 0.055 nM | 84200 gMFI
5 | B5 | 0.054 nM | 38700 gMFI | 0.006 nM | 63000 gMFI | 0.009 nM | 51900 gMFI | 0.011 nM | 82700 gMFI
6 | B6 | 0.908 nM | 75100 gMFI | 0.04 nM | 81700 gMFI | 0.039 nM | 82900 gMFI | 0.031 nM | 87200 gMFI

Target: T1, human CD3 (on human Pan-T cells or …)
Assay: cell-based or functional assay
Remark: another data set of the same source

Row | Binder | Cytokine Release Assay (IFNγ), Donor 0, EC50 | Cytokine Release Assay (IFNγ), Donor 0, gMFI max | Cytokine Release Assay (IFNγ), Donor 1, gMFI max | Cytokine Release Assay (IFNγ), Donor 2, EC50 | Cytokine Release Assay (IFNγ), Donor 2, gMFI max | Cytokine Release Assay (IFNγ), Donor 3, EC50 | Cytokine Release Assay (IFNγ), Donor 3, gMFI max | Cytokine Release Assay (IFNγ), Donor 1, EC50
7 | B1 | 2.35 nM | 573000 gMFI | 4690 gMFI | 2.68 nM | 18500 gMFI | 7.93 nM | 152000 gMFI | –
8 | B2 | – | 812000 gMFI | 5380 gMFI | 1.91 nM | 27700 gMFI | – | 332000 gMFI | –
9 | B3 | 0.191 nM | 1.71e+06 gMFI | 10800 gMFI | 0.126 nM | 31600 gMFI | 0.0851 nM | 513000 gMFI | –
10 | B4 | ~12.3 nM | 958000 gMFI | 4940 gMFI | 0.103 nM | 16200 gMFI | 0.063 nM | 170000 gMFI | –
11 | B5 | 0.0418 nM | 1.6e+06 gMFI | 45100 gMFI | 0.0396 nM | 66800 gMFI | 0.0403 nM | 475000 gMFI | 0.191 nM
12 | B6 | 0.045 nM | 2.82e+06 gMFI | 912000 gMFI | 2.16 nM | 1.41e+06 gMFI | 0.126 nM | 1.68e+06 gMFI | 6.99 nM

— US20260167721A1 (ABLEXIS, published 2026)
